Results as given in paper PMC4383081.

Target: microtubules polymerised from bovine brain tubulin (taxol-stabilised) (bovine) (UniProt Q6B856)
Assay: stopped-flow mant-ADP release kinetics; kinesin·mant-ADP (1:1) mixed with varying microtubule concentrations plus MgATP, 298 K; fitted rate constants against microtubule concentration; apparent

A K0.5 (apparent microtubule dissociation constant) of 21.3 µM was found for “N255K point mutant of the human monomeric kinesin K349 construct (from UniProt P33176 1-349) (domain or fragment)” in this work.
